The target of test [1] is T1, AT5G67580.1 TRB2 (Arabidopsis thaliana) (UniProt Q9FJW5).
T1 sequence: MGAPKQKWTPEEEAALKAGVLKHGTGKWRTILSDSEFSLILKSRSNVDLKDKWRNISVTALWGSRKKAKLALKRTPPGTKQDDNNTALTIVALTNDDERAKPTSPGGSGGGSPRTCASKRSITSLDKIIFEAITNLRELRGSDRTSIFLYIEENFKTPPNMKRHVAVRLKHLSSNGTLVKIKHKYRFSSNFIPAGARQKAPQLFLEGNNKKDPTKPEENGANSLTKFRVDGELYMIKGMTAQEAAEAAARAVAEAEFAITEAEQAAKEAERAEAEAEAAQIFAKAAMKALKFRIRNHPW
Put plainly: IP-MS rep 1.

Test [2] addresses AT3G20740.1 FIE (Arabidopsis thaliana) (UniProt Q9LT47). The test can be described thus: IP-MS rep 1.
Test [3] concerns the target AT3G10490.2 NAC052 (Arabidopsis thaliana) (UniProt Q9SQY0). Put plainly: IP-MS rep 1.
Test [4] deals with AT1G22950.1 ICU11 (Arabidopsis thaliana) (UniProt Q3ED68). Put plainly: IP-MS rep 1.
The target of test [5] is AT3G10480.3 NAC050 (Arabidopsis thaliana) (UniProt Q9SQX9). The test can be described thus: IP-MS rep 1.
Test [6] has as its target AT3G18210.1 CP2 (Arabidopsis thaliana) (UniProt P0DO23). Put plainly: IP-MS rep 1.
Test [7] deals with AT5G11530.1 EMF1 (Arabidopsis thaliana) (UniProt Q9LYD9). Put plainly: IP-MS rep 1.
In test [8] the target is AT5G58230.1 MSI1 (Arabidopsis thaliana) (UniProt O22467). The test can be described thus: IP-MS rep 1.
The target of test [9] is T1, AT5G67580.1 TRB2 (Arabidopsis thaliana). Put plainly: IP-MS rep 2.
The target of test [10] is AT3G20740.1 FIE (Arabidopsis thaliana) (UniProt Q9LT47). The test can be described thus: IP-MS rep 2.
Test [11] addresses AT3G10490.2 NAC052 (Arabidopsis thaliana) (UniProt Q9SQY0). Put plainly: IP-MS rep 2.
For test [12], the target named is AT1G22950.1 ICU11 (Arabidopsis thaliana) (UniProt Q3ED68). The test can be described thus: IP-MS rep 2.
Test [13] deals with AT3G10480.3 NAC050 (Arabidopsis thaliana) (UniProt Q9SQX9). The test can be described thus: IP-MS rep 2.
Test [14] deals with AT3G18210.1 CP2 (Arabidopsis thaliana) (UniProt P0DO23). Put plainly: IP-MS rep 2.
Test [15] has as its target AT5G11530.1 EMF1 (Arabidopsis thaliana) (UniProt Q9LYD9). Put plainly: IP-MS rep 2.
Test [16] addresses AT5G58230.1 MSI1 (Arabidopsis thaliana) (UniProt O22467). The test can be described thus: IP-MS rep 2.
In test [17] the target is T1, AT5G67580.1 TRB2 (Arabidopsis thaliana). Put plainly: X-link IP-MS.
Test [18] has as its target AT3G20740.1 FIE (Arabidopsis thaliana) (UniProt Q9LT47). Put plainly: X-link IP-MS.
For test [19], the target named is AT3G10490.2 NAC052 (Arabidopsis thaliana) (UniProt Q9SQY0). Put plainly: X-link IP-MS.
Test [20] has as its target AT1G22950.1 ICU11 (Arabidopsis thaliana) (UniProt Q3ED68). The test can be described thus: X-link IP-MS.
The target in test [21] is AT3G10480.3 NAC050 (Arabidopsis thaliana) (UniProt Q9SQX9). The test can be described thus: X-link IP-MS.
In test [22] the target is AT3G18210.1 CP2 (Arabidopsis thaliana) (UniProt P0DO23). Put plainly: X-link IP-MS.
The target in test [23] is AT5G11530.1 EMF1 (Arabidopsis thaliana) (UniProt Q9LYD9). The test can be described thus: X-link IP-MS.
Test [24] addresses AT5G58230.1 MSI1 (Arabidopsis thaliana) (UniProt O22467). The test can be described thus: X-link IP-MS.

Chain of AT3G10480.3 NAC050 (Arabidopsis thaliana) (Q9SQX9 whole entry): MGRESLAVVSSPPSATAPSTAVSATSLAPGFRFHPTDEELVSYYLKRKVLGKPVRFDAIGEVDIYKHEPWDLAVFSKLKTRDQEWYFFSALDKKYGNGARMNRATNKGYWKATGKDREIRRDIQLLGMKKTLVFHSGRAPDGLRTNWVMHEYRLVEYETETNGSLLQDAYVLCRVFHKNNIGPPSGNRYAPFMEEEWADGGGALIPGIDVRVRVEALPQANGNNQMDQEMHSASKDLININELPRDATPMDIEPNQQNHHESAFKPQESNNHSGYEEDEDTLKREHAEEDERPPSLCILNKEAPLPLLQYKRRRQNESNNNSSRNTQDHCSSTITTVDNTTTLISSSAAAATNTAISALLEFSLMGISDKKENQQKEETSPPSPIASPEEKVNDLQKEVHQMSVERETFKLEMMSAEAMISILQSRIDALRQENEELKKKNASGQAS
Chain of AT5G11530.1 EMF1 (Arabidopsis thaliana) (Q9LYD9 whole entry): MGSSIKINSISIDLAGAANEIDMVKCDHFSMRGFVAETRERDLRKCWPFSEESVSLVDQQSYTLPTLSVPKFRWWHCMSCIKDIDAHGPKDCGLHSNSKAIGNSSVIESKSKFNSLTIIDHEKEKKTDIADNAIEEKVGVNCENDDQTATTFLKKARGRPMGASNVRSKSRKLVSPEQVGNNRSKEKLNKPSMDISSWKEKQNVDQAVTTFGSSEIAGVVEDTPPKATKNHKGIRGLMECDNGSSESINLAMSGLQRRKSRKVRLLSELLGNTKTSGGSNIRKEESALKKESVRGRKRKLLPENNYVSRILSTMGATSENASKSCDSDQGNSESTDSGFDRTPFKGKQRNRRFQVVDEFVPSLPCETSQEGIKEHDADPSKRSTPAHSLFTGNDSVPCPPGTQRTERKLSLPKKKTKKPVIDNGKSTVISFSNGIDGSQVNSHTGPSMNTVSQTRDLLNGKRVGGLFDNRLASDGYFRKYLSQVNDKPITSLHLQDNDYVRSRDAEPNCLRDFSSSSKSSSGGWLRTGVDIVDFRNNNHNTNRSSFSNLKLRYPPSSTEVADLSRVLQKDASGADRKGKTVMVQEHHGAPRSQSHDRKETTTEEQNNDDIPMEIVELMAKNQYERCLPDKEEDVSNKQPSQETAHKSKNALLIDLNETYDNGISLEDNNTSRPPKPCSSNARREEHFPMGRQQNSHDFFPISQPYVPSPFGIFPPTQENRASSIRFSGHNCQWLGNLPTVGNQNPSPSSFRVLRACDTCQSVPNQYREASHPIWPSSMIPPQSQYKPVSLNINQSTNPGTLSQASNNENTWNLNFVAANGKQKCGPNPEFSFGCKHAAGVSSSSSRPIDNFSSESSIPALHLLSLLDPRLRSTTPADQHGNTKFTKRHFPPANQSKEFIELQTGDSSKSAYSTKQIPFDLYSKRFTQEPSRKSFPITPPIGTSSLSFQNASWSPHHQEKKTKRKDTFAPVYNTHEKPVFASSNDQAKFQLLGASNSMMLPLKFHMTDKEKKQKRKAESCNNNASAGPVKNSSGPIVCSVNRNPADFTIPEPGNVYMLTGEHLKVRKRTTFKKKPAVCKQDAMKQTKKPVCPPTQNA
Chain of AT3G20740.1 FIE (Arabidopsis thaliana) (Q9LT47 whole entry): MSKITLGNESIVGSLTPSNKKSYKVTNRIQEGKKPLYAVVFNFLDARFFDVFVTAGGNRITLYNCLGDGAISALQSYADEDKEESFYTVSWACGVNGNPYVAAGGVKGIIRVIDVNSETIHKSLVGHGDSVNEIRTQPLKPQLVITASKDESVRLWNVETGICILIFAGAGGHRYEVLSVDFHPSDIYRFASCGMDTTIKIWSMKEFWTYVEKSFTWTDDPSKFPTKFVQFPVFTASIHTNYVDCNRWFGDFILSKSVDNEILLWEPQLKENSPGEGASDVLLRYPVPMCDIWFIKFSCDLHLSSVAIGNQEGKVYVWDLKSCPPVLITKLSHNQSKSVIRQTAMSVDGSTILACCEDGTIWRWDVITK
Chain of AT3G18210.1 CP2 (Arabidopsis thaliana) (P0DO23 whole entry): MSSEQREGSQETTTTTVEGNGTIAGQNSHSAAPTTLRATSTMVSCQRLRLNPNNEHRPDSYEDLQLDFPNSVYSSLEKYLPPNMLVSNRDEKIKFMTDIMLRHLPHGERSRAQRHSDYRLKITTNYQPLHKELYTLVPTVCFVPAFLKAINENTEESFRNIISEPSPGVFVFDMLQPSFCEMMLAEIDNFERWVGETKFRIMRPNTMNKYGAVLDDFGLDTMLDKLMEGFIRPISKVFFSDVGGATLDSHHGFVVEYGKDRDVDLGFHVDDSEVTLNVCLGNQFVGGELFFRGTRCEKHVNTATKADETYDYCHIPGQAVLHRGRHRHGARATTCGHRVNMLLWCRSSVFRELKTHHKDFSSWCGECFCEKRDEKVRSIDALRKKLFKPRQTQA
Chain of AT3G10490.2 NAC052 (Arabidopsis thaliana) (Q9SQY0 whole entry): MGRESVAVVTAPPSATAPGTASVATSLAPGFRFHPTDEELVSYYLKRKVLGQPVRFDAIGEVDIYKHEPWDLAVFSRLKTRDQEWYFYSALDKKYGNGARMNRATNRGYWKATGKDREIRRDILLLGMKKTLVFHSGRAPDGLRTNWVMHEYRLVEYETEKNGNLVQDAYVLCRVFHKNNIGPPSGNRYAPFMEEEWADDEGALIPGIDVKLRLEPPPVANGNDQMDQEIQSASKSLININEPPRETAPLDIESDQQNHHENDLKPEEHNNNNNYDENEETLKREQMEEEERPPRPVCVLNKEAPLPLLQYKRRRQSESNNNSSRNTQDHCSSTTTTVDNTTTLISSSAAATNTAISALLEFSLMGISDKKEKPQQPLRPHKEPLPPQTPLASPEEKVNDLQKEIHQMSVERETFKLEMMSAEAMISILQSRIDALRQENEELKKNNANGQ
Chain of AT5G58230.1 MSI1 (Arabidopsis thaliana) (O22467 whole entry): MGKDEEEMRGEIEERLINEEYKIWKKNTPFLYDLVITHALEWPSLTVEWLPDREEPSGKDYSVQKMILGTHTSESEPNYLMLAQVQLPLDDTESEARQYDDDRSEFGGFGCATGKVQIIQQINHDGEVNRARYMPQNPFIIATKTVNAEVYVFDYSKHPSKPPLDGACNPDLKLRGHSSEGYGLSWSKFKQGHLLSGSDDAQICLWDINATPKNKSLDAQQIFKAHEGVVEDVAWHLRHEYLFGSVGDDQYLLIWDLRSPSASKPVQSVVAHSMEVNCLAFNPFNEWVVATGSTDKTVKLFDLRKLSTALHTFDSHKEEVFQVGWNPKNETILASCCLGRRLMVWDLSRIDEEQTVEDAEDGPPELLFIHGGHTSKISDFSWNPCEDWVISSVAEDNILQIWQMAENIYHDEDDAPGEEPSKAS
Chain of AT1G22950.1 ICU11 (Arabidopsis thaliana) (Q3ED68 whole entry): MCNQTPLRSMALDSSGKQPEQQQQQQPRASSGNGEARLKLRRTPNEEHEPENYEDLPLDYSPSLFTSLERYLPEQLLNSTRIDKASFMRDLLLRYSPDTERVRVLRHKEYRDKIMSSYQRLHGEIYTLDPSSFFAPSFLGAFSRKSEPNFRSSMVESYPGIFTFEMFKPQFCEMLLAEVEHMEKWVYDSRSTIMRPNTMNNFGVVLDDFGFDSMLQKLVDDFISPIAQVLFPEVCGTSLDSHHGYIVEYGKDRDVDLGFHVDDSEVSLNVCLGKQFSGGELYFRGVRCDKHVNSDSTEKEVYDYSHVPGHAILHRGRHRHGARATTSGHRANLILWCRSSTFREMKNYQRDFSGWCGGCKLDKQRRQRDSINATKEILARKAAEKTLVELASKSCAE

Take FLAG-TRB1 (from UniProt Q8VWK4 1-300): the IP-MS count came out at 0 in test [1]; 1 in [2]; 103 in test [3]; 75 in [4]; 33 in test [5]; 13 in [6]. For the same substance, the IP-MS count in test [7] was determined as 3; in test [8], 11; in test [9], 0; in test [10], 3; in test [11] it was 103; in test [12], 79. Further, the IP-MS count in [13] came to 35; in [14] it was 17; in test [15], 2; in [16], 12; in test [17] it was 2; in test [18], 5. The IP-MS count in [19] was determined as 55; in test [20], 27; in [21] it was 40; in test [22], 11; in test [23], 11; in test [24], 12.

For the origin of these results see patent publication US20250042956A1.
